Test [1] addresses T1, human CD117 on cells (SKMEL-3 cells, CD34+ HSC) (human, UniProt P10721 26-976).
T1 construct: whole, on cells; also called CD117 on cell surfaces; CD117+ cells
The test can be described thus: flow cytometry, CD34+ HSC, monomeric Fc. In general terms: In flow cytometry, cells or beads pass a laser one at a time.

The target in test [2] is T2, human CD117 ectodomain (human, UniProt P10721 26-524, biotinylated (BirA co-expression) where captured on streptavidin biosensors).
T2 construct: extracellular domain; also called cKIT; full length AviTagged CD117 ectodomain; not shown: C-terminal AviTag or His tag
T2 sequence (P10721 26-524): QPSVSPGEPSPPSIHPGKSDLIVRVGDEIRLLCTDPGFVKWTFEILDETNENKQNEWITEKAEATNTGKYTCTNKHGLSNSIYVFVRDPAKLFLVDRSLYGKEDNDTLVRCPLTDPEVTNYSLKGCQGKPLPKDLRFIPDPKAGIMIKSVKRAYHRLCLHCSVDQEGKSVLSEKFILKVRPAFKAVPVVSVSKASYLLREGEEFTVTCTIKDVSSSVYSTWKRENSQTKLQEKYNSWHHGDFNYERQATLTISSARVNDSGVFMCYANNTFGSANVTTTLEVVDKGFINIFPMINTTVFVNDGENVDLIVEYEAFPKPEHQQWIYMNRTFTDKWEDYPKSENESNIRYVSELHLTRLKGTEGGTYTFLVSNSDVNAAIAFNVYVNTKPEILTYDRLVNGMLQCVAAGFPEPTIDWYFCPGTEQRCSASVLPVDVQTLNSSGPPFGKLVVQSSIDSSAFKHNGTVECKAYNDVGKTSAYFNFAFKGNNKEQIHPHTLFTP
The experiment in a line: ELISA, human CD117, monovalent Fc fusion. In general terms: In an ELISA, binding on a coated surface is turned into a signal by an enzyme label.

Test [3] addresses T1, human CD117 on cells (SKMEL-3 cells, …). The experiment in a line: flow cytometry, skMEL-3 cells, monomeric Fc.
The target in test [4] is cynomolgus monkey CD117 ectodomain (cynomolgus monkey). The test can be described thus: BLI (Octet), biotinylated ectodomain on SA biosensor, 1:1 global fit, monomeric Fc. On the technique in general: BLI is a label-free optical method that tracks binding on a fibre tip over time.
Test [5] addresses T2, human CD117 ectodomain. The test is described as above. An excerpt:
Pre-equilibrated streptavidin biosensors (SA, from Sartorius) were coated with biotinylated CD117 ectodomain by dipping the biosensors into wells containing an optimized dilution of human or cyno CD117 ectodomain. After re-equilibrating the biosensor tips in assay buffer, the biosensors were dipped into supernatant containing the VHH antibodies to allow association between the antibodies and the CD117 ectodomain. Finally, the biosensors were dipped into the assay buffer. The VHH antibodies disassociated from the CD117 ectodomain if association occurred. The association and dissociation of each VHH antibody was characterized qualitatively to identify VHHs that could bind both human and cyno CD117 ectodomains.
For example, kinetics parameters of the top VHH antibodies for binding to human CD117 and cynomolgus monkey CD117 ectodomain were obtained from the Octet® analysis by Biolayer Interferometry as described above. A minimum of three concentrations of purified VHH antibodies were tested per ectodomain target. The Octet® software was used to perform a global kinetic fit across all concentrations using a 1:1 binding model. This allowed determination of the kinetic parameters, association rate (kₒₙ), dissociation rate (koff) and equilibrium constant (KD) for the 9 antibodies of interest. Total chi-squared (X²) was also examined to determine the goodness of fit for the software's kinetic model.

Test [6] addresses T3, truncated CD117 ectodomain, Domain 1 (UniProt P10721 26-112, limits assumed, biotinylated).
T3 construct: domain: Domain 1; not shown: AviTag
The experiment in a line: BLI, truncated ectodomain on SA biosensor. The protocol:
(§1) To identify the approximate binding epitopes of the VHH antibodies, truncated ectodomains were expressed as fusion polypeptides with an AviTag. Additionally, biotin is added to the protein during expression to allow capture of the material onto Streptavidin-coated (SA) biosensors. SA biosensors (Sartorius) were incubated with one of the truncated ectodomains. Full length CD117 ectodomain was used as a control. […] Except for P29 and P37, all others bind Domains 1-2 and Domains 1-3. Except for P37, all others bind Domains 1-4.

For test [7], the target named is T4, truncated CD117 ectodomain, Domains 1-2 (UniProt P10721 26-208, limits assumed, biotinylated).
T4 construct: domain: Domains 1-2; not shown: AviTag
T4 sequence (P10721 26-208 limits assumed): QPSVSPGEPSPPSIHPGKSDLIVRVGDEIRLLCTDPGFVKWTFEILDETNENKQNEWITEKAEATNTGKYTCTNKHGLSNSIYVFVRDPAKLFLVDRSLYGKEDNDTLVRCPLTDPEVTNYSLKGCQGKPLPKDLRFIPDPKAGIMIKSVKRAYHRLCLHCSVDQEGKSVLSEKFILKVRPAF
The experiment in a line: BLI, truncated ectodomain on SA biosensor. The protocol:
as §1

In test [8] the target is T5, truncated CD117 ectodomain, Domains 1-3 (UniProt P10721 26-311, limits assumed, biotinylated).
T5 construct: domain: Domains 1-3; not shown: AviTag
T5 sequence (P10721 26-311 limits assumed): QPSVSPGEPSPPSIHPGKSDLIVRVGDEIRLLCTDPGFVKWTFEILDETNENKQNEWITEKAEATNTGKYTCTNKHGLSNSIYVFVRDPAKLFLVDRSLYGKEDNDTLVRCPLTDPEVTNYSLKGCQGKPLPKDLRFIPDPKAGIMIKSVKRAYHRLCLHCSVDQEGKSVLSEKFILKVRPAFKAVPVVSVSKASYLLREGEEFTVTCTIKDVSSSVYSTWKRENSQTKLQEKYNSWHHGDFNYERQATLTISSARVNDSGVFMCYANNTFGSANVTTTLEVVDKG
The experiment in a line: BLI, truncated ectodomain on SA biosensor. On the procedure:
as §1

The target of test [9] is T6, truncated CD117 ectodomain, Domains 1-4 (UniProt P10721 26-410, limits assumed, biotinylated).
T6 construct: domain: Domains 1-4; not shown: AviTag
T6 sequence (P10721 26-410 limits assumed): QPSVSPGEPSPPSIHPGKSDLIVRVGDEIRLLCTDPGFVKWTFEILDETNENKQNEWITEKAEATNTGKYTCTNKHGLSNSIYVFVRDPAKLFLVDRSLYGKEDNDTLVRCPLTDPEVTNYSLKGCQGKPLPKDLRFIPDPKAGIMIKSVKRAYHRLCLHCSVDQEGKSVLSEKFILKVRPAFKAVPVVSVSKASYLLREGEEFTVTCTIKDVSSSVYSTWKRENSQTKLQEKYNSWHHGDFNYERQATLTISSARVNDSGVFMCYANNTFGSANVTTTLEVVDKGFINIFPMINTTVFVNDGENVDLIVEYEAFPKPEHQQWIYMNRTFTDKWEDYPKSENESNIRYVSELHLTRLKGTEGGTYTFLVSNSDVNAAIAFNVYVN
The experiment in a line: BLI, truncated ectodomain on SA biosensor. On the procedure: as §1

The results in this text go back to US20260137802A1 (CRISPR THERAPEUTICS, published 2026).

T1 sequence (P10721 26-976): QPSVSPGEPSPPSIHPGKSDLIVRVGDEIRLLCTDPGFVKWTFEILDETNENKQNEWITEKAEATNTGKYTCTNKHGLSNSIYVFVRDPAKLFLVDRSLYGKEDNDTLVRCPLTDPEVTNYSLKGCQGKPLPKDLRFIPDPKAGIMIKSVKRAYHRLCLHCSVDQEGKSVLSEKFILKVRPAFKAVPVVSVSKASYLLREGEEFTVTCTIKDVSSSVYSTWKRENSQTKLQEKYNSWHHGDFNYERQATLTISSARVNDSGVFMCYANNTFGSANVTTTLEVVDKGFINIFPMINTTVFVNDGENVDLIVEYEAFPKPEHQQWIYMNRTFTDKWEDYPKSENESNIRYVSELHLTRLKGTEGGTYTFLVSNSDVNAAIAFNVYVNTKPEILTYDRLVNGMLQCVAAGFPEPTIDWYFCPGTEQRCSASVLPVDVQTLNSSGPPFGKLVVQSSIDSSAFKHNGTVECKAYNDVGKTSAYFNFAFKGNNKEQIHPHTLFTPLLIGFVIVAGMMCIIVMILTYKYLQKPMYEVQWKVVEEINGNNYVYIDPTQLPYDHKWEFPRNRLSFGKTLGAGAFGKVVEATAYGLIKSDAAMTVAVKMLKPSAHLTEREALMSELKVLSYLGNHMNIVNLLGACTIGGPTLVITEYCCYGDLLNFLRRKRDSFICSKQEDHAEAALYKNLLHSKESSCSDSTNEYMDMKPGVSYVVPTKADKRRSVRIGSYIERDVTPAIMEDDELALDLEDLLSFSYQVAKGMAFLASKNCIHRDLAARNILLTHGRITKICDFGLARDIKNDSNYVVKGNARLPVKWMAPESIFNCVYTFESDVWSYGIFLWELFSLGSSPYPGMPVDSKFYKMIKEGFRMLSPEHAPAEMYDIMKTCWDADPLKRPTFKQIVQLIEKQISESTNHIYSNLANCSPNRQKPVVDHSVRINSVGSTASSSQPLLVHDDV
T3 sequence (P10721 26-112 limits assumed): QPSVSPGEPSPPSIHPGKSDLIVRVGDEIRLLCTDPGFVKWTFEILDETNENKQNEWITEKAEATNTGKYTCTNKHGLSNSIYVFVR

B1: P-0010 (Fc fusion)
chain: QVQLVESGGGLVQAGGSLRLSCVASGRTFSSYAMGWFRQGPGKEREFAAAILSNGLTTYYADSVKGRFTISRDNAKDTVYLQMNSLKPEDTANYYCAAAFTPEFRDGGIWDDASVDYWGQGTQVTVSS
notes: Any second Fc chain without VHH is not described in the text; also called monovalent form of P10; not shown: Fc fragment
In the case of B1, the half-maximal effective concentration (EC50) in test [1] and in test [3] was 2 nM each time. Further, the figures for the Kd in [2], in test [4] and in test [5] were 0.28 nM, 54.9 nM and 16.5 nM, respectively.

B2: P-0027 (Fc fusion)
chain: EVQLVESGGGLVRAGGSLRLSCAASGRTTFSTYWLGWFRQAPGKNREFVAAISWSAGMAYYQDSKGRFTISRDNTKNTAYLQMNSLQPEDTAVYYCAAGRFHPIRVDTALYWAQGTQVTVSS
notes: Any second Fc chain without VHH is not described in the text; also called monovalent form of P27; not shown: Fc fragment
Take B2: the concentration giving a half-maximal response (EC50) in test [1] and in [3] was 10 nM each time. Besides, the Kd in test [2] is 1.32 nM; in test [4] it was 8.11 nM; in [5] it was 44.7 nM.

B3: P29 (VHH)
VHH: QVHLVESGGGLVQAGGSLGLSCAASGHTFSNYAMGWFRQAPGKEREFVAAISWSGGSTLYADSVKGRFTISRDNGENTVYLQMNSLKPEDTAVYYCALDSTGVYGTGYVSSRKGRYEYWGQGTLVTVSS
notes: also called P29/P54; anti-CD117 VHH P29
As to B3, the binding result in [6], in test [7] and in [8] was “no binding” each time.

B4: P-0032 (Fc fusion)
chain: QVQLVESGGGLVQAGDSLRLSCAASGRTFSSYAMGWFRQAPGKEREFVASITSSGLVAYYGDSVEARFTISRDNAKNTVYLQMDSLKPEDTAVYYCAARQYVGSGSYYLKKEGGYEYWGPGTQVTVSS
notes: Any second Fc chain without VHH is not described in the text; also called monovalent form of P32; not shown: Fc fragment
On to B4, for which the Kd came to 1.49 nM in test [2], 8.01 nM in test [4] and 1.86 nM in [5].

B5: P-0031 (Fc fusion)
chain: EVQLVESGGGLVRAGGSLRLSCAASGRTFTYDARAWFRQAPGKEREFVAAISWSGGSTYYPNSMKGRFTISRDNAKNTVYLQMNSLKPEDTAVYYCAADESFPAYYSDYALYRYWGQGTLVTVSS
notes: Any second Fc chain without VHH is not described in the text; also called monovalent form of P31; not shown: Fc fragment
Turning to B5, the EC50 in test [1] came to 4 nM; in [3], 3 nM. For the same molecule, the equilibrium dissociation constant (Kd) was found to be 0.52 nM in test [2], 1.62 nM in test [4] and 7.42 nM in test [5].

B6: P-0038 (Fc fusion)
chain: EVQLVESGGGLVQAGGSLRLSCAASGRTSGSYVMGWFRQAPGKEREFVAAISWSAGMTYYADSVKGRFTISRDNAKNTVYLQMNSLKPEDTAVYYCAADQRGVPAYYSDYALYDYWGQGTQVTVSS
notes: Any second Fc chain without VHH is not described in the text; also called monovalent form of P38; not shown: Fc fragment
On to B6, for which the EC50 in test [1] and in test [3] was 10 nM throughout. In addition, the Kd in [2] worked out at 1 nM; in test [4], 19 nM; in test [5], 8.85 nM.

B7: P-0035 (Fc fusion)
chain: QVQLVESGGGLVQAGGSLRLSCAASGGTFSIYPVGWFRQAPGKQREFVAAIGWSASGTYYGDSVEGRFTVSRDNARSTVYLRMSSLKPDDTAVYYCAAASGSNWRLGAIDEYDSWGQGTQVTVSS
notes: Any second Fc chain without VHH is not described in the text; also called monovalent form of P35; not shown: Fc fragment
On to B7, for which the figures for the 50% effective concentration (EC50) in test [1] and in test [3] were 30 nM and 10 nM, respectively. Also, the dissociation constant Kd is 1.91 nM in test [2], 7.02 nM in [4] and 2.89 nM in test [5].

B8: P-0037 (Fc fusion)
chain: QVQLVESGGGLVQAGDSLRLSCAVSGRTLSNYFMAWLRQAPGKEREFVAAIHWSLGSTYYQDPVKGRFTISRDKAKNTVYLQMNTLKPEDTATYICAAGQHLSGLGGSAWSIEGDYWGQGTQVTVSS
notes: Any second Fc chain without VHH is not described in the text; also called monovalent form of P37; not shown: Fc fragment
Take B8: the EC50 in test [1] is more than 50 nM; in [3], 20 nM. In addition, the dissociation constant Kd in test [2] was found to be 0.97 nM; in test [4] it was 25 nM; in [5], 28 nM.

B9: P37 (VHH)
VHH: QVQLVESGGGLVQAGDSLRLSCAVSGRTLSNYFMAWLRQAPGKEREFVAAIHWSLGSTYYQDPVKGRFTISRDKAKNTVYLQMNTLKPEDTATYICAAGQHLSGLGGSAWSIEGDYWGQGTQVTVSS
notes: also called P37/P58; anti-CD117 VHH P37
For the molecule B9, the binding result in [6], in test [7], in test [8] and in [9] was “no binding” in each case.

For orientation: EC50 means the midpoint of the concentration-response curve. What is called Kd is the equilibrium constant for the complex coming apart.
